The target in data set [1] is T1, human galectin-1 (hGal1), native (Homo sapiens, UniProt P09382 SEQ:1-134). Kind of data set: thermal shift assay; results stated similar to SEQ ID NO 4 and 9. The following applies: tags: expressed in E. coli M-15, lactosyl-Sepharose purified; chain copies: 2. How it is done: (§1) Thermofluor experiments were performed on an Mx3005 RT-PCR (Agilent Technologies) using the SYPRO® Orange dye (492/610 nm) (Invitrogen) as fluorescent probe. The purified (native and alkylated) protein samples were incubated for 30 min with increasing concentration of the molecules of interest, centrifuged, and submitted to the thermal denaturation assay, totalizing four distinct experiments. In a 96-well plate (Agilent Technologies) 20 μl of the reaction containing 5 μM of each protein in buffer PBS 1× and 5× SYPRO® Orange were heated from 25° C. to 95° C. at a rate of 1° C./min. The experimental result was processed as in the protocol previously described and the melting temperature was obtained using GraphPad Prism software (www.graphpad.com).

Data set [2] has as its target T1, human galectin-1 (hGal1), native. Kind of data set: thermal shift assay; among the four with greatest Tm variation. The conditions noted are these: tags: expressed in E. coli M-15, lactosyl-Sepharose purified; chain copies: 2. How it is done: as §1

The record followed here is US20210301293, “DNA APTAMERS, METHOD FOR INHIBITING HUMAN GALECTIN-1 AND METHOD OF TREATING A MAMMAL IN NEED THEREOF” (published 2021).

T1 sequence (P09382 2-135): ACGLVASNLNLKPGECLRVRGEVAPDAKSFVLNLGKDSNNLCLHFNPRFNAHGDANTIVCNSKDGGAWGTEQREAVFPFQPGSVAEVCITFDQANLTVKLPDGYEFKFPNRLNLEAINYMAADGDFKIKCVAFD

B1: SEQ ID NO. 12 (ssDNA)
DNA: AGCTGACACAGCAGGTTGGTGCGCCCAATACAGGCGCAGTATCTGTCCGTGGGCCGGGTAAAAGTTACGGACCGAGTCGAGCAATCTCGAAAT
For B1, in data set [1], the binding result is “binds”.

B2: SEQ ID NO. 9 (ssDNA)
DNA: AGCTGACACAGCAGGTTGGTGCCCAAAAGAGCCAATCCACGACGACACCCCAAAAACCATATCACGAATACCCGAGTCGAGCAATCTCGAAAT
For the molecule B2, in data set [2], the binding result is recorded as “binds”.

B3: SEQ ID NO. 10 (ssDNA)
DNA: AGCTGACACAGCAGGTTGGTGCCAACAAGAAAAGAAACCGTTACAGAAGACACTACAGAATAAGTGAAAAGCCGAGTCGAGCAATCTCGAAAT
As for B3, in data set [1], the binding result is “binds”.
